Experimental data from publication PMC7935953, “Insights on autophagosome–lysosome tethering from structural and biochemical characterization of human autophagy factor EPG5” (Communications Biology, 2021).

B1: hEPG5-LIR1 peptide (peptide)
peptide: GSGTWTLVDEG
notes: human EPG5 residues 546-556, holding the LIR1 motif 550WTLV553; source: synthetic peptide (LifeTein)
B2: GST-GABARAP (natural protein, human, UniProt O95166 1-117, looked up)
chain: MKFVYKEEHPFEKRRSEGEKIRKKYPDRVPVIVEKAPKARIGDLDKKKYLVPSDLTVGQFYFLIRKRIHLRAEDALFFFVNNVIPPTSATMGQLYQEHHEEDFFLYIAYSDESVYGL

How the values were obtained:
Settings in all cases: both partners purified
His-LC3A = His-LC3A (human, UniProt Q9H492 1-121); test: ITC; 0.6 mM peptide titrated into 0.06 mM His-LC3/GABARAP protein in 20 steps at 25 °C; 50 mM Tris pH 7.0, 25 mM NaCl; one-site binding model
His-GABARAPL2 = His-GABARAPL2 (human, UniProt P60520 1-117); test: as above
His-GABARAPL1 = His-GABARAPL1 (human, UniProt Q9H0R8 1-117); test: as above
His-GABARAP = His-GABARAP (human, UniProt O95166 1-117); test: as above
His-LC3B = His-LC3B (human, UniProt Q9GZQ8 1-120); test: as above
hEPG5^F794A = target: T1, hEPG5^F794A (human, UniProt Q9HCE0 1-2579, F794A); test: pull-down; GST pull-down: purified GST-LC3A/B/C or GST-GABARAP/L1/L2 bait (200–240 µg) on glutathione resin, purified His-FLAG-hEPG5 or mutant (25–30 µg) as prey; 50 mM Tris pH 8.0, 150 mM NaCl, 5% glycerol, 0.01% Tween20, 0.5 mM DTT, 4 °C; anti-FLAG fluorescence western blot
T1 construct: also called third LIR motif mutant

hEPG5^Δ1770–2579 = target: T2, hEPG5^Δ1770–2579 (human, UniProt Q9HCE0 1-1769); test: as above
T2 construct: also called truncated hEPG5 lacking the entire C-terminal region

hEPG5^Δ1–548 = target: T3, hEPG5^Δ1–548 (human, UniProt Q9HCE0 549-2579); test: as above
T3 construct: also called truncated hEPG5 devoid of the region between the N-terminus and the two LIR motifs

hEPG5^Q336R = target: T4, hEPG5^Q336R (human, UniProt Q9HCE0 1-2579, Q336R); test: as above
T4 construct: human EPG5, full length, with the Vici syndrome missense mutation Q336R (c.1007A>G); also called Gln336Arg; Vici syndrome mutant

hEPG5^W567A = target: T5, hEPG5^W567A (human, UniProt Q9HCE0 1-2579, W567A); test: as above
T5 construct: also called LIR2 mutant

[1] = target: T6, His-FLAG-hEPG5 (human EPG5, full length, wild type) (human, UniProt Q9HCE0 1-2579); test: pull-down; co-purification: His-FLAG-hEPG5 bound to Ni-NTA resin, GST-GABARAP applied, washed, eluted with imidazole; 50 mM Na phosphate pH 7.4, 150 mM NaCl, 0.01% TWEEN 20, 5% glycerol; complex seen on SDS-PAGE and by negative stain EM 2D class averages
T6 construct: His-FLAG tag from a modified pFastBacHTB; also called hEPG5^WT; ectopic P-granules autophagy protein 5
T6 sequence (Q9HCE0 whole entry): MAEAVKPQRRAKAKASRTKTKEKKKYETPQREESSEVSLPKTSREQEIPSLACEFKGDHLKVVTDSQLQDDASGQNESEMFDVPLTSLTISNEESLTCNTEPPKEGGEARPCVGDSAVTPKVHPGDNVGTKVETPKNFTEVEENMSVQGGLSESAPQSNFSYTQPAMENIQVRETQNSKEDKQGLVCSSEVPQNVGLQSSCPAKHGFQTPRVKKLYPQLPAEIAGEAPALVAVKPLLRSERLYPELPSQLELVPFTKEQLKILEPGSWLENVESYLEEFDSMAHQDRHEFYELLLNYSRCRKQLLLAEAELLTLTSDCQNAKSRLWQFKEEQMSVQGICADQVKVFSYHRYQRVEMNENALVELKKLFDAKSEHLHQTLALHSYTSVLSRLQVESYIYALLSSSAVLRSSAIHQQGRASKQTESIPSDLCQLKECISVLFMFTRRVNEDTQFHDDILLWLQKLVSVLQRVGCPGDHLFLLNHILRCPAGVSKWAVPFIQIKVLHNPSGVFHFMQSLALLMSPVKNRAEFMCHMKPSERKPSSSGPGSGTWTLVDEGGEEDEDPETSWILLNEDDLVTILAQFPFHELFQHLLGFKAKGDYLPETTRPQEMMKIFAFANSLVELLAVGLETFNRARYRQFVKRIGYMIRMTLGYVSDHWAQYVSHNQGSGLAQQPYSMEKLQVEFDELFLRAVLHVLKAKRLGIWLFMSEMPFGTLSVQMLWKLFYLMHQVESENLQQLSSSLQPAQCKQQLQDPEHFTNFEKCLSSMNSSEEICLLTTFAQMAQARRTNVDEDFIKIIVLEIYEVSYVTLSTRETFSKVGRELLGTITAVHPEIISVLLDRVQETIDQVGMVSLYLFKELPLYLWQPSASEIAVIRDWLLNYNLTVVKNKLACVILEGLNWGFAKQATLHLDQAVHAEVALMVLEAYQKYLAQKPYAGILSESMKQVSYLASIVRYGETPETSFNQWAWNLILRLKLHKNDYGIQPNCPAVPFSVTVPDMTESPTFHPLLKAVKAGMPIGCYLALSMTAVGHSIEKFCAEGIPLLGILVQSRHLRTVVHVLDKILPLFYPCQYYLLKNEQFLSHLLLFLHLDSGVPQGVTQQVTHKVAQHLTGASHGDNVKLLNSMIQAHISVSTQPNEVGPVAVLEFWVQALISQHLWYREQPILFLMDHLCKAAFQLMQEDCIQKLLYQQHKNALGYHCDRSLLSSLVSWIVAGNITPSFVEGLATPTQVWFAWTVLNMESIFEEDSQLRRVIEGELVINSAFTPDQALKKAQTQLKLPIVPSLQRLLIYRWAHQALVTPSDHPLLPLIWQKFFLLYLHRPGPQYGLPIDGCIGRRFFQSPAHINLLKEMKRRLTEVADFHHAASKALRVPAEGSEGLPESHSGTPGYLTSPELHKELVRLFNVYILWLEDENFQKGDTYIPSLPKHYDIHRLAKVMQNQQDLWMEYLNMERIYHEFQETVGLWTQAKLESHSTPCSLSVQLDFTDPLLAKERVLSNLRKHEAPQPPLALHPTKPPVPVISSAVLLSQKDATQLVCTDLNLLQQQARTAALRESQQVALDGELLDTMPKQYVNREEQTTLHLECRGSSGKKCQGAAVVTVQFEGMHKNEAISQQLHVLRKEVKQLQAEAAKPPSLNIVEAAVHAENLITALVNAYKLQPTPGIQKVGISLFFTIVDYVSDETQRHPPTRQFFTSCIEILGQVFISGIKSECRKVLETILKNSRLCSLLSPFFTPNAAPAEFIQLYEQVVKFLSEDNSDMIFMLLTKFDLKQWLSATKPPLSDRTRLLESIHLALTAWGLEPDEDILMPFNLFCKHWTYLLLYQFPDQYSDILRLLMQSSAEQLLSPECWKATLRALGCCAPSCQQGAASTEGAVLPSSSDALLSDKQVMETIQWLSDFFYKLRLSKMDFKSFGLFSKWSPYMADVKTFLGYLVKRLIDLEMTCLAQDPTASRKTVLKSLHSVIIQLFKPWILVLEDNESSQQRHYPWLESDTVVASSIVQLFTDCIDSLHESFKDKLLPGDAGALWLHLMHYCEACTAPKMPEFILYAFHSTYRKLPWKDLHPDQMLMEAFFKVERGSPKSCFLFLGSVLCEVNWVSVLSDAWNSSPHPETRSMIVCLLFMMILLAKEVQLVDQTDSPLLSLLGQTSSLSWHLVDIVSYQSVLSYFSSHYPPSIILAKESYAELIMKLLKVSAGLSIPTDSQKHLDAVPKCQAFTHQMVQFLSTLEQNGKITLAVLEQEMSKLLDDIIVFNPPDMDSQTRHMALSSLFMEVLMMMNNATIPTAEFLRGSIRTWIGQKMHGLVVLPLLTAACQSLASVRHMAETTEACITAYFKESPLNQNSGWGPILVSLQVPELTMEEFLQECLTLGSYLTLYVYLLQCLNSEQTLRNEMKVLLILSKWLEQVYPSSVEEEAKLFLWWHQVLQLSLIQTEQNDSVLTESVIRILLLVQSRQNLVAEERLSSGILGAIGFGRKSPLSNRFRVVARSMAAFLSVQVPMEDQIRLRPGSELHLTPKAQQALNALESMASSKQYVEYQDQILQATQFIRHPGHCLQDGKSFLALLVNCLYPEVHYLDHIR

His-GABARAPL2, sequence (P60520 whole entry): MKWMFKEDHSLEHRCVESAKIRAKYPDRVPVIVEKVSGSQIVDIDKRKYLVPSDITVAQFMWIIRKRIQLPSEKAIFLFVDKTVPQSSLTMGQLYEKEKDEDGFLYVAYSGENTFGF
T5 sequence (Q9HCE0 whole entry W567A): as the sequence (Q9HCE0 whole entry) above, with W567A counted along it
T1 sequence (Q9HCE0 whole entry F794A): as the sequence (Q9HCE0 whole entry) above, with F794A counted along it
T3 sequence (Q9HCE0 549-2579, stated change not applied): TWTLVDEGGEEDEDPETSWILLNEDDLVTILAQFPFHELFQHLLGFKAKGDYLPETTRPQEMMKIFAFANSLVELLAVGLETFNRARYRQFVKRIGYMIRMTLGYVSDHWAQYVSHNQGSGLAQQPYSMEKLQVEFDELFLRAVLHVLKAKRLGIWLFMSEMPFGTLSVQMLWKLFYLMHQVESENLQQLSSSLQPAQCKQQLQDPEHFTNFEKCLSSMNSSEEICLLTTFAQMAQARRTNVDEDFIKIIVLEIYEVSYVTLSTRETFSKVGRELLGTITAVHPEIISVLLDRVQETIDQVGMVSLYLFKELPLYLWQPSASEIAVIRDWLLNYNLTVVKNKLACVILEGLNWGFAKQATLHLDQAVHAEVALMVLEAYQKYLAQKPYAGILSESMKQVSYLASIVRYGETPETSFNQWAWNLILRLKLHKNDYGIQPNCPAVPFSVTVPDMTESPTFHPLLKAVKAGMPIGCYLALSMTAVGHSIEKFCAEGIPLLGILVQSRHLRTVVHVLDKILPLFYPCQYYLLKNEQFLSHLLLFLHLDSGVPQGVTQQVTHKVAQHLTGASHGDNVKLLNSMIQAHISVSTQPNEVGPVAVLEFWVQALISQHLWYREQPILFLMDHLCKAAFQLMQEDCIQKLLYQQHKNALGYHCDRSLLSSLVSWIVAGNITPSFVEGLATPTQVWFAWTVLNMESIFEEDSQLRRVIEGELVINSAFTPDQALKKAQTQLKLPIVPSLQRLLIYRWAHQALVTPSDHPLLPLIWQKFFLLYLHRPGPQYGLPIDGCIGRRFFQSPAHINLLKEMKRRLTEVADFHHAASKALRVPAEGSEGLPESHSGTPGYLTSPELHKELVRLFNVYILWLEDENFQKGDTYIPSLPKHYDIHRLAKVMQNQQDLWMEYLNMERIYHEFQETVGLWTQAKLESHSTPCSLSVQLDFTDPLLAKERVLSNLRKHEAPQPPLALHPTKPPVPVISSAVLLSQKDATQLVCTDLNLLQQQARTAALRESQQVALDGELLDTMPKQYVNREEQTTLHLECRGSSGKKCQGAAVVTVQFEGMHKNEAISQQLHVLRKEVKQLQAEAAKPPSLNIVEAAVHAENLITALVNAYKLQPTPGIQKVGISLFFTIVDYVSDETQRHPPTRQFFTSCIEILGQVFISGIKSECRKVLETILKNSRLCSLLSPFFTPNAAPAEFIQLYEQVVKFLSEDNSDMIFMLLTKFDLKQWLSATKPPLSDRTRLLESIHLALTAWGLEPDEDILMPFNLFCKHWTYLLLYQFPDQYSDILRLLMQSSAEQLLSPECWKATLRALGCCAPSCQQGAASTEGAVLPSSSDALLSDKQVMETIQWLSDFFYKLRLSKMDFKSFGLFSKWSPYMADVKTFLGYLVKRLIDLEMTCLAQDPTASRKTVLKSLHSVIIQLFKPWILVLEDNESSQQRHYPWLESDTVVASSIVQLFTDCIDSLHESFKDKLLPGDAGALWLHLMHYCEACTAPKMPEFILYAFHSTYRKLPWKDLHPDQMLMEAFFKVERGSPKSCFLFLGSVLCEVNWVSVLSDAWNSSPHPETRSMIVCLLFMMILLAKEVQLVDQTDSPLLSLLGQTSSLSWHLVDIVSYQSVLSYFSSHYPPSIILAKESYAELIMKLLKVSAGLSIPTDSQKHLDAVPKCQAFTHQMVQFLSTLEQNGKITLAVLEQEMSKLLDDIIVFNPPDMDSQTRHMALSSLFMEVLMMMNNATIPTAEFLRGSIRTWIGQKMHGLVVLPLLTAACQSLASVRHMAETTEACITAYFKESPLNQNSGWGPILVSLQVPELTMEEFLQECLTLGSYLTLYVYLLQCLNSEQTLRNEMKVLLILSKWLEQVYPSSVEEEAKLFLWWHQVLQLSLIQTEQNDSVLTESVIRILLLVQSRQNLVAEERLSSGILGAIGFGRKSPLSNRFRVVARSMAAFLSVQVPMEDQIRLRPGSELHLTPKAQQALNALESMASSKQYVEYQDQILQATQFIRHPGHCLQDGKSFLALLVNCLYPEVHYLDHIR
T4 sequence (Q9HCE0 whole entry Q336R): as the sequence (Q9HCE0 whole entry) above, with Q336R counted along it
His-GABARAPL1, sequence (Q9H0R8 whole entry): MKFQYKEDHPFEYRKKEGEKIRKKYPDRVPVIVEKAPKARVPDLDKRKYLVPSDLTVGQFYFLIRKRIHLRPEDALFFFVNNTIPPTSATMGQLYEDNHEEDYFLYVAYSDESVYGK

Row | Binder | fold KD relative to LIR1-GABARAP (His-LC3A) [times] | Kd (His-GABARAPL2) [µM] | Kd (His-GABARAPL1) [µM] | Kd (His-GABARAP) [µM] | Kd (His-LC3A) [µM] | Kd (His-LC3B) [µM] | binding result (hEPG5^F794A) | binding result (hEPG5^Δ1770–2579) | binding result (hEPG5^Δ1–548) | binding result (hEPG5^Q336R) | binding result (hEPG5^W567A) | binding result [1]
1 | B1 | 3 | 11.8 | 8.54 | 7.47 |  |  |  |  |  |  |  | 
2 | DEDPETSWILLN (source: synthetic peptide (GenScript)) [hEPG5-LIR2 peptide] |  | 0.68 |  | 0.16 | 1.75 | 4.07 |  |  |  |  |  | 
3 | B2 |  |  |  |  |  |  | binds | binds | binds | binds | binds | binds
